Legend:
Cnu (E. coli) [1] = assay: other fluorescence titration; ~2 uM Cnu with ~30 nM to ~140 uM H-NS; W67 emission on excitation at 295 nm, intensity-averaged wavenumber; Hill fit; apparent; 500 mM ionic strength, sodium phosphate pH 8.0; temperatures from 5 to 37 °C
Cnu (E. coli) [2] = assay: other fluorescence titration; ~2 uM Cnu with ~30 nM to ~140 uM H-NS; W67 emission on excitation at 295 nm, intensity-averaged wavenumber; Hill fit; apparent; 170 mM ionic strength, sodium phosphate pH 8.0; temperatures from 5 to 37 °C
[3] = target: H-NSW, variant of H-NS with a tryptophan at its C-terminus (E. coli) (UniProt P0ACF8); assay: fluorescence polarisation; steady-state tryptophan anisotropy; 2 uM H-NSW with ~30 nM to ~140 uM H-NS (tyrosine variant); excitation 295 nm; 170 mM ionic strength, 5 °C and 37 °C; apparent; fit to monomer-dimer (1:1) equilibrium
H-NS = target: T1, H-NS (Escherichia coli, UniProt P0ACF8); assay: fluorescence anisotropy
T1 chain: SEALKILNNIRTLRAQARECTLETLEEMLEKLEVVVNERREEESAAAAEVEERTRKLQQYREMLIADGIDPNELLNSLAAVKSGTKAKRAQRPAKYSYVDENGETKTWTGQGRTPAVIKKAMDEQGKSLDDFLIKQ

B1: H-NS (residues 1-59 of the N-terminal domain), the tyrosine variant (domain or fragment)
chain: MSEALKILNNIRTLRAQARESTLETLEEMLEKLEVVVNERREEESAAAAEVEERTRKLY
Question: Which K1/2 (Cnu (E. coli) [1]) does the source give for B1 here?
Answer: The K1/2 was 100 µM.

Question: And the fold increase in affinity against 500 mM IS (Cnu (E. coli) [2])?
Answer: The fold increase in affinity against 500 mM IS was 4 fold.

Question: And the Kd [3]?
Answer: Its Kd is 100 to 150 µM.

Question: And the minimum oligomerization concentration [3]?
Answer: Its minimum oligomerization concentration is 10 µM.

B2: Cnu (protein)
chain: MTVQDYLLKFRKISSLESLEKLYDHLNYTLTDDQELINMYRAADHRRAELVSGGRLFDLGQVPKSVWHYVQ
Question: For B2, which Kd (H-NS) is on record?
Answer: Its Kd is ~125 µM.

— paper PMC6491433 (2019)
